B1: GLP-1 anti TfR-Fab fusion protein (compound of Example 6 / FIG. 6, SEQ ID NO: 11) (other)
light: HGEGTFTSDVSSYLEEQAAREFIAWLVKGRPGGGSGGGSGGGSGGGSDIQMTQSPASLSASLEEIVTITCQASQDIGNWLAWYQQKPGKSPQLLIYGATSLADGVPSRFSGSRSGTQFSLKISRVQVEDIGIYYCLQAYNTPWTFGGGTKLELKRADAAPTVSIFPPSSEQLTSGGASVVCFLNNFYPKDINVKWKIDGSERQNGVLNSWTDQDSKDSTYSMSSTLTLTKDEYERHNSYTCEATHKTSTSPIVKSFNRNEC
heavy: EVQLVESGGGLVQPGNSLTLSCVASGFTFSNYGMHWIRQAPKKGLEWIAMIYYDSSKMNYADTVKGRFTISRDNSKNTLYLEMNSLRSEDTAMYYCAVPTSHYVVDVWGQGVSVTVSSAKTTPPSVYPLAPGSAAQTNSMVTLGCLVKGYFPEPVTVTWNSGSLSSGVHTFPAVLQSDLYTLSSSVTVPSSTWPSETVTCNVAHPASSTKVDKKIVPRDCGHHHHHHHHHH
notes: Two-chain Fab fusion; also called GLP-1-(GGGS)4-aTfR light chain + aTfR-(His)10 heavy chain
B2: Vivotag 750 labelled GLP-1 anti TfR-Fab fusion protein (compound of Example 8 / FIG. 8) (other)
light: B1 light
heavy: B1 heavy
modifications: VivoTag750 (NHS ester) randomly attached to amines; mixture of 0, 1, 2, 3 labels per molecule (average about 1)
notes: The label positions are not defined; also called GLP-1-Active TfR; fluorescence labelled GLP-1 anti TfR-Fab fusion protein
B3: GLP-1 anti TNP-Fab fusion protein (compound of Example 5 / FIG. 5, SEQ ID NO: 8) (other)
light: HGEGTFTSDVSSYLEEQAAREFIAWLVKGRPGGGSGGGSGGGSGGGSDIVMTQTPLSLSVTPGQPASISCRSSQSLLHSNGNTYLHWYLQKPGQSPQLLIYKVSNRFSGVPDRFSGSGSGTDFTLKISRVEAEDVGVYYCSQSTHVPWTFGQGTKVEIKRTVAAPSVFIFPPSDEQLKSGTASVVCLLNNFYPREAKVQWKVDNALQSGNSQESVTEQDSKDSTYSLSSTLTLSKADYEKHKVYACEVTHQGLSSPVTKSFNRGEC
heavy: QVQLQESGPGLVKPSETLSLTCTVSGGSISSGYWNWIRQPPGKGLEWIGTISYSGDTYYNPSLKSRVTISVDTSKNQFSLKLSSVTAADTAVYYCARYGSYVFDYWGQGTTVTVSSASTKGPSVFPLAPCSRSTSESTAALGCLVKDYFPEPVTVSWNSGALTSGVHTFPAVLQSSGLYSLSSVVTVPSSSLGTKTYTCNVDHKPSNTKVDKRVESKHHHHHHHHHH
modifications: N-terminal residue found as pyroglutamic acid in the purified protein
notes: Two-chain Fab fusion; also called GLP-1-(GGGS)4-aTNP light chain + aTNP-(His)10 heavy chain
B4: GLP-1 control Fab fusion protein (compound of Example 7 / FIG. 7, SEQ ID NO: 12) (other)
light: B3 light
heavy: B1 heavy
notes: Hybrid of the anti-TNP light chain fusion and the anti-TfR heavy chain; also called hybrid construct
B5: Vivotag 750 labelled GLP-1 control Fab fusion protein (compound of Example 9 / FIG. 9) (other)
light: B3 light
heavy: B1 heavy
modifications: VivoTag750 (NHS ester) randomly attached to amines; mixture of 0, 1, 2, 3 labels per molecule (average about 1)
notes: The label positions are not defined; also called fluorescence labelled GLP-1 control Fab fusion protein
B6: GLP-1 control Fab conjugate (compound of Example 14 / FIG. 14) (other)
light: DIVMTQTPLSLSVTPGQPASISCRSSQSLLHSNGNTYLHWYLQKPGQSPQLLIYKVSNRFSGVPDRFSGSGSGTDFTLKISRVEAEDVGVYYCSQSTHVPWTFGQGTKVEIKRTVAAPSVFIFPPSDEQLKSGTASVVCLLNNFYPREAKVQWKVDNALQSGNSQESVTEQDSKDSTYSLSSTLTLSKADYEKHKVYACEVTHQGLSSPVTKSFNRGEC
heavy: EVQLVESGGGLVQPGNSLTLSCVASGFTFSNYGMHWIRQAPKKGLEWIAMIYYDSSKMNYADTVKGRFTISRDNSKNTLYLEMNSLRSEDTAMYYCAVPTSHYVVDVWGQGVSVTVSSASTKGPSVFPLAPCSRSTSESTAALGCLVKDYFPEPVTVSWNSGCLTSGVHTFPAVLQSSGLYSLSSVVTVPSSSLGTKTYTCNVDHKPSNTKVDKRVESK
peptide: HGEGTFTSDVSSYLEEQAAREFIAWLVRGKG
modifications: epsilon amino group of Lys at position 36 (GLP-1(7-37) numbering) carries the linker -Ado-gGlu-Ado-, joined via -CH2-C(O)- to Cys 382 of the Fab; thiol of Cys 382 (numbering of FIG. 14 / SEQ ID NO: 5) linked via Chem. 2 -CH2-C(O)-Ado-gGlu-Ado- to the GLP-1 analogue
B7: GLP-1 anti TfR-Fab conjugate (compound of Example 15 / FIG. 15) (other)
light: DIQMTQSPASLSASLEEIVTITCQASQDIGNWLAWYQQKPGKSPQLLIYGATSLADGVPSRFSGSRSGTQFSLKISRVQVEDIGIYYCLQAYNTPWTFGGGTKLELKRTVAAPSVFIFPPSDEQLKSGTASVVCLLNNFYPREAKVQWKVDNALQSGNSQESVTEQDSKDSTYSLSSTLTLSKADYEKHKVYACEVTHQGLSSPVTKSFNRGEC
heavy: B6 heavy
peptide: B6 peptide
modifications: epsilon amino group of Lys at position 36 (GLP-1(7-37) numbering) carries the linker -Ado-gGlu-Ado-, joined via -CH2-C(O)- to Cys 377 of the Fab; thiol of Cys 377 (numbering of FIG. 15 / SEQ ID NO: 3) linked via Chem. 2 -CH2-C(O)-Ado-gGlu-Ado- to the GLP-1 analogue

Target: T1, human GLP-1 receptor (human, UniProt P43220 24-463)
Assay: cell-based or functional assay

First: B1
Second: B2
The “EC50/pM (0% HSA), in vitro potency, CRE luciferase reporter gene assay” value (“EC50/pM (0% HSA), in vitro potency” below) of the first is lower: 48.3 pM for the first, 92.8 pM for the second.

Compared with B3, B4 is lower in “EC50/pM (0% HSA), in vitro potency” value: 267 pM for the first, 52.4 pM for the second.

First: B5
Second: B6
The “EC50/pM (0% HSA), in vitro potency” value of the first is lower: 58.6 pM for the first, 818 pM for the second.

B7 was tested, and the “EC50/pM (0% HSA), in vitro potency” value was 435 pM.

Target: T1, human GLP-1 receptor
Assay: displacement of [125I]-GLP-1(7-36)NH2 from BHK membranes with human GLP-1R, SPA, low HSA
Experimental: 1. For the receptor binding assay in the presence of low HSA (0.001%) 50 μl of the assay buffer was added to each well of an assay plate. Assay continued with step 3. 2. For the receptor binding assay in the presence of high HSA (2.0%) 50 μl of the 8% albumin stock was added to each well of an assay plate. Assay continued with step 3. 3. Test compounds were serially diluted to give the following concentrations: 8×10⁻⁷ M, 8×10⁻⁸ M, 8×10⁻⁹ M, 8×10⁻¹° M, 8×10⁻¹¹ M, 8×10⁻¹² M and 8×10⁻¹³ M. Twenty-five μl were added to appropriate wells in the assay plate. 4. Cell membrane aliquots were thawed and diluted to their working concentration. Fifty μl were added to each well in the assay plate. 5. WGA SPA beads were suspended in assay buffer at 20 mg/ml. The suspension was diluted to 10 mg/ml in assay buffer just prior to addition to the assay plate. Fifty μl were added to each well in the assay plate. 6. The incubation was started by adding 25 μl of 480 pM solution of [¹²⁵I]-GLP-1]-(7-36) NH₂ to each well of the assay plate. A 25 μl aliquot was reserved for measuring total counts/well. 7. The assay plate was incubated for 2 h at 30° C. 8. The assay plate was centrifuged for 10 min. 9. The assay plate was read in a Packard TopCount NXT instrument.
The data from the TopCount instrument were transferred to GraphPad Prism software. The software averaged the values for the replicates and performed a non-linear regression. IC₅₀ values were calculated by the software and reported in nM.

Compared with B1, B2 is 2.9-fold higher in IC50: 3.28 nM for the first, 9.61 nM for the second. The first is the more potent here.

Compared with B3, B4 is 5.2-fold lower in IC50: 12.5 nM for the first, 2.39 nM for the second. The second is the more potent here.

First: B5
Second: B6
The IC50 of the first is 14-fold lower: 3.89 nM for the first, 55.9 nM for the second.

Work on B7 yielded an IC50 of 32.5 nM.

Target: T2, mouse transferrin receptor (mouse, UniProt Q62351 1-763)
T2 construct: whole, on cells; also called TfR
T2 sequence (Q62351 whole entry): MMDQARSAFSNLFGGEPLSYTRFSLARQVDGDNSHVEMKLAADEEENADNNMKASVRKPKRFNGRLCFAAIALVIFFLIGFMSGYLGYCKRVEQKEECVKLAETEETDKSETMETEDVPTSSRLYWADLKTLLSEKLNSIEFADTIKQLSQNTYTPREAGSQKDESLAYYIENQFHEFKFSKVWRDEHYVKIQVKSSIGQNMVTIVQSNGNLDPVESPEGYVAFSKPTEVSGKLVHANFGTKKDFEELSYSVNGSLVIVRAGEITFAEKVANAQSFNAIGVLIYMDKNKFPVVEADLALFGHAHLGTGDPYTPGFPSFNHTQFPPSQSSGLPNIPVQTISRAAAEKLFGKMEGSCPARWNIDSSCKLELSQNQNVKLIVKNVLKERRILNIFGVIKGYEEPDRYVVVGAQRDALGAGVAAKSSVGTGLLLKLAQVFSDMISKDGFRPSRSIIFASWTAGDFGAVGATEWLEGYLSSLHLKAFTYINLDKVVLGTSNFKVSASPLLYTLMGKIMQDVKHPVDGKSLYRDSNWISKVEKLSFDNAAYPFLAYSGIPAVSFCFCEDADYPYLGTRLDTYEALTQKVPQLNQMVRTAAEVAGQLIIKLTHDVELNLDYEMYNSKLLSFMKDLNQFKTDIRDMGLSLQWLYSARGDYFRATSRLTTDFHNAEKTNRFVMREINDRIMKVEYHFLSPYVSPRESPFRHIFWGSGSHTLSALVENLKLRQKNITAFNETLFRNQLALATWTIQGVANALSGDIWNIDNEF
Assay: inhibition of uptake of 5 nM Cy5-labelled anti TfR-Fab into MEF-1 cells (mouse TfR), high-content imaging
Experimental: The day before each assay the cells were plated out at 5000 cells/well. 2. On the assay day the cells were washed with HBSS containing 0.1% (w/v) HSA. 3. Test compounds were serially diluted to give the following concentrations: 2×10⁻⁶ M, 2×10⁻⁷ M, 2×10⁻⁸ M, 2×10⁻⁹ M, 2×10⁻¹° M, 2×10⁻¹¹ M, 2×10⁻¹² M and 2×10⁻¹³ M. 100 μl of each was added to appropriate wells in the assay plate. 4. To each of the wells the fluorescently-labelled Fab fragment was added to a final concentration of 5 nM. 5. The plates were incubated at 37° C. for 15 min. After incubation the buffer was removed and the cells were washed with HBSS containing 0.1% (w/v) HSA. 6. Fifty μl of cold 4% PFA was added in a fume hood. […] The assay plate was read in a high-content imaging instrument (IN Cell 2200 instrument, GE).
The data from the IN Cell instrument was analysed using the software that was supplied with the instrument. […] The amount of fluorescence that was internalised was calculated by defining granules visible in the Cy5 channel of the instrument and corresponded to internalised Cy5-labelled Fab fragment. The number and intensity of granules in each cell were calculated. The readout from the instrument that was used for further calculations was the total area of the granules divided by the number of cells in each acquisition field. […] IC50 values were calculated by the software and reported in nM.

For B7, the IC50 was 17.4 nM.
